Laboratory results taken from patent US20260274928A1 (VIR BIOTECHNOLOGY, published 2026).
Like-named read-outs stand apart in the source and are kept apart here.

Tests used:
SARS-CoV-2 BA.1 RBD = SARS-CoV-2 BA.1 RBD (SARS-CoV-2 BA.1, UniProt P0DTC2 328-531); assay: RBD binding affinity (SPR, see Example 5)
[1] = molecular target: SARS-CoV-2 BQ.1.1 S glycoprotein (SARS-CoV-2 BQ.1.1); assay: cell-based or functional assay
[2] = molecular target: SARS-CoV-2 XBB.1.5 S glycoprotein (SARS-CoV-2 XBB.1.5); assay: cell-based or functional assay
[3] = molecular target: SARS-CoV-2 BA.5 S glycoprotein (SARS-CoV-2 BA.5); assay: cell-based or functional assay
[4] = molecular target: SARS-CoV-2 BQ.1.1 S glycoprotein (SARS-CoV-2 BQ.1.1); assay: cell-based or functional assay; remark: listed apart in the source
[5] = molecular target: SARS-CoV-2 BQ.1.1 S glycoprotein (SARS-CoV-2 BQ.1.1); assay: cell-based or functional assay; remark: listed apart in the source

B1: S3L17 (antibody, V domains shown)
VH: EVQLVESGGGLVQPGGSLRLSCAASEIIVSSNYMNWVRQAPGKGLEWVSVIYAGGSTFYADSVRGRFTISRDNSKNTLYLQMNSLRPDDTAIYYCARDLGPWGMDVWGQGTTVTVSS
VL: DIQMTQSPSSLSASVGDRVAITCRASHGINNDLAWYQQKPGKVPKLLIYAASTLQSGVPSRFSGSGSGTDFTLTISSLQPEDVATYYCQHYSSDPRFTFGPGTKVDIK
SARS-CoV-2 BA.1 RBD
  Kd: 0.08 nM

B2: S2V29-v1.2 (antibody, V domains shown)
VH: EVQLVESGGSVVQPGRALRLSCAASGITFSSFGMYWVRQAPGKGLEWLGVIAYDGSNTYYADSVKGRFTISRDNSKNTLYLQMNSLRIEDTAVYYCAKDYYPLLSYYYGLDVWGQGTTVTVSS
VL: QSVLTQPRSVSGSPGQSVTISCTGTSSDVGAYNYVSWYQQHPGKAPKFMIYDVDQRPSGVPDRFSGSKSGNTASLIISGLQAEDEADYYCSSYAGSYIWVFGGGTQLTVL
SARS-CoV-2 BA.1 RBD
  Kd: 0.05 nM
[1]
  IC50: 9 ng/mL
[2]
  IC50: 5.2 ng/mL
[3]
  IC50: 2.6 ng/mL

B3: S2V29-v37.2 (antibody, V domains shown)
VH: EVQLVESGGSVVQPGRALRLSCAASGITFSSFGMYWVRQAPGKGLEWLGYIAYDGSDTYYADSVKGRFTISRDNSKNTLYLQMNSLRIEDTAVYYCAKDYYPLLSYYYGLDVWGQGTTVTVSS
VL: QSVLTQPRSVSGSPGQSVTISCTGTSSDVGAYNYVSWYQQHPGKAPKFMIYDVDQRPSGVPDRFSGSKSGNTASLIISGLQAEDEADYYCSSYAGSYIWVFGGGTQLTVL
SARS-CoV-2 BA.1 RBD
  Kd: 0.39 nM
[4]
  FC IC50 par/IC50 Var: 1.4 fold
  IC50: 5.6 ng/mL
[1]
  FC vs S2V29-v1.2: 1.6 fold
  IC50: 5.6 ng/mL
[3]
  FC vs S2V29-v1.2: 1.2 fold
  IC50: 2.1 ng/mL
[5]
  IC50: 5 ng/mL
